The record followed here is the RNAGym collection of RNA variant scans (doi:10.1101/gr.219683.116).

To fix the notation:
B1: mRNA-splicing (parent)
chain: AGUUGCUGCUGGGAGCUCCAGCACAGUGAAAUGGACAGAAGGGCAGAGCAA

In this data set the parent is B1. The data set can be described thus: exon inclusion enrichment index; higher = more inclusion; WT1 exon 5 minigene, HEK293.
In the case of G28U A29G, the “exon inclusion enrichment index” value stood at 0.0875.
On to G5A U7C G8A U10C A31U U32G, for which the “exon inclusion enrichment index” value came out at 1.32.
Consider A35U C36G, for which the “exon inclusion enrichment index” value stood at 0.00845.
With C6A U7A C9A U10A A35C C36U, the “exon inclusion enrichment index” value came out at 0.0347.
With C6A U7C C9A U10C C44U A45U, the “exon inclusion enrichment index” value came out at 2.71.
C36G A37U: the “exon inclusion enrichment index” value came to 0.0724.
Then G5A C9A, with 0.851; and G2C G5A U7C G8A U10C, with 2.
In the case of C6A U7C C9A U10C A35U C36U, the “exon inclusion enrichment index” value was 0.135.
Turning to C6A U7A C9A U10A A45U G46U, the “exon inclusion enrichment index” value was 0.185.
Under C6A U7A C9A U10A C18A C19G stands 0.0285.
As for G5C C6U G8C C9U U10C G43U C44A, the “exon inclusion enrichment index” value stood at 0.0354.
Turning to G5A C6G U7G C9A U17G C18U, the “exon inclusion enrichment index” value came to 0.00166.
For the variant G5A C6G U7G C9A G13C A14U, the “exon inclusion enrichment index” value amounted to 0.0025.
G5A C6A G8C C9U U10C: the “exon inclusion enrichment index” value was found to be 0.618.
On to C6A U7G C9A U10A, for which the “exon inclusion enrichment index” value amounted to 0.108.
Then U3G U4C G5C C6A U7C G8A U10A, with 0.139; and G5C C6G U7C U10C A14G G15A, with 2.07.
With U3C U4G G5C C6G U7C U10C, the “exon inclusion enrichment index” value is 1.31.
Consider G5U G8U C9U G11U G12C, for which the “exon inclusion enrichment index” value came to 0.0157.
In the case of G5A U7C G8A U10C A37U G38U, the “exon inclusion enrichment index” value came out at 0.601.
In the case of C6U U7C C9A U10C, the “exon inclusion enrichment index” value was 3.37.
Turning to G5U G8U C9U A47G G48A, the “exon inclusion enrichment index” value worked out at 0.0435.
With G5C C6U G8C C9U U10C A31G, the “exon inclusion enrichment index” value was determined as 2.47.
For G5A C6U U7A G8U C9A C36A, the “exon inclusion enrichment index” value was determined as 0.0298.
G5A C6U U7A G8U C9A A47G: the “exon inclusion enrichment index” value worked out at 0.0115.
In the case of C19U A20G, the “exon inclusion enrichment index” value is 0.684.
For the variant G5C C6G U7C U10C U27A, the “exon inclusion enrichment index” value came out at 3.66.
With G5A C6G U7G C9A C19A A20C, the “exon inclusion enrichment index” value was 0.00131.
Under G5U G8U C9U A47U stands 0.115; under G5A U7C G8A U10C G15A C16U, 1.55; under U3C U4G G5C C6A U7C G8A U10A, 0.239.
Take G5C C6U G8C C9U U10C A20U G21U: the “exon inclusion enrichment index” value came to 1.12.
In the case of C6A U7A C9A U10A G21C C22A, the “exon inclusion enrichment index” value is 0.729.
With C6A U7A C9A U10A G41U, the “exon inclusion enrichment index” value stood at 0.866.
In the case of G2U U3A G5A C6G U7G C9A, the “exon inclusion enrichment index” value is 0.0451.
As for C6A U7C C9A U10C G43C C44G, the “exon inclusion enrichment index” value was determined as 4.77.
In the case of G5A C6U U7A G8U C9A C44A A45G, the “exon inclusion enrichment index” value amounted to 0.0995.
Regarding G5A U7C G8A U10C A35C C36G, the “exon inclusion enrichment index” value was determined as 2.06.
Take G5C C6G U7C U10C A37U: the “exon inclusion enrichment index” value came out at 3.22.
Under G5A C6U U7A G8U C9A A47G G48A stands 0.0214.
On to G5A C6G U7G C9A A31C U32A, for which the “exon inclusion enrichment index” value was found to be 0.00457.
For the variant G5A C6G U7G C9A A31C U32C, the “exon inclusion enrichment index” value amounted to 0.00479.
As to A45G G46U, the “exon inclusion enrichment index” value was 0.121.
Then G5C C6U G8C C9U U10C A45U G46C, with 1.3; and A40U, with 0.156.
Regarding U7A G8A, the “exon inclusion enrichment index” value came out at 1.49.
Regarding U7A G8U, the “exon inclusion enrichment index” value came out at 1.83.
For G5A U7C G8A U10C C22A, the “exon inclusion enrichment index” value came to 2.32.
Then G5A C6U U7A G8U C9A U32C G33C, with 0.144.
On to G5A C6U U7A G8U C9A U32C G33U, for which the “exon inclusion enrichment index” value was found to be 0.0226.
Under G5U G8U C9U G43C C44G stands 1.3.
Then G5C C6U G8C C9U U10C U27G G28C, with 1.04.
Under G5A C6U U7A G8U C9A A20C G21U stands 0.0238; under G5U G8U C9U U17C C18G, 0.151.
As to G5U G8U C9U U17C C18A, the “exon inclusion enrichment index” value was 0.0484.
Regarding G5A U7C G8A U10C G34U A35C, the “exon inclusion enrichment index” value was 0.726.
Under G5C C6A U7C G8A U10A A29U stands 0.035; under G5C C6G U7C U10C G41U G42C, 3.95.
On to G5C C6A U7C G8A C9A U10C, for which the “exon inclusion enrichment index” value was 1.81.
As for C6A G8U C9A U10A, the “exon inclusion enrichment index” value came to 0.023.
On to G5C C6A U7C G8A U10A C22G A23G, for which the “exon inclusion enrichment index” value worked out at 0.043.
For the variant C6A U7C C9A U10C G41A G42U, the “exon inclusion enrichment index” value came out at 2.71.
Regarding G5A U7C G8A U10C G48A, the “exon inclusion enrichment index” value was 2.99.
Regarding G5U G8A, the “exon inclusion enrichment index” value was 1.23.
As for G5A C6U U7A G8U C9A G46A A47G, the “exon inclusion enrichment index” value was found to be 0.0237.
For U3A G5A C6G U7G C9A, the “exon inclusion enrichment index” value is 0.0155.
In the case of G5A C6G U7A C9A, the “exon inclusion enrichment index” value amounted to 0.0497.
As to G5A U7C G8A U10C C22G A23G, the “exon inclusion enrichment index” value was 1.4.
On to C6A U7A C9A U10A G11A G12C, for which the “exon inclusion enrichment index” value worked out at 2.24.
For the variant C6A U7C U10G, the “exon inclusion enrichment index” value was 1.66.
Turning to G5U G8U C9U A39G, the “exon inclusion enrichment index” value was found to be 0.0522.
Under G5C U7G G8C C9U U10C stands 0.323; under G5C C6G U7C U10C G11U, 3.33; under C6A U7A C9A U10A G33C G34U, 0.522.
Under C6A U7C C9A U10C G46A A47C stands 3.66; under C6A U7C C9A U10C G46A A47U, 2.94; under C6A U7C C9A U10C C22A A23U, 2.92.
Take G5C C6A U7C G8A U10A A25U: the “exon inclusion enrichment index” value amounted to 0.205.
As to G5C C6G U7C U10C C22G A23G, the “exon inclusion enrichment index” value turned out to be 2.57.
Regarding U4A G5A C6U G8C C9U U10C, the “exon inclusion enrichment index” value is 0.574.
Turning to G46U, the “exon inclusion enrichment index” value amounted to 0.0964.
Turning to G33A, the “exon inclusion enrichment index” value came out at 0.0129.
